One series concerns the target T1, dsr3510ΔC-term (Liquorilactobacillus nagelii, UniProt A0A3Q8CN51).
T1 construct: gene BSQ50_03510
Briefly: Michaelis-Menten fit, released fructose (D-fructose/D-glucose assay kit). In kind it is biochemical. The note with it: pH 5.0, 30 °C, 0.05 M sodium acetate, 1 mM CaCl2; crude enzyme extract, 2500 µg/mL protein. The source says: Michaelis-Menten fit, released fructose (D-fructose/D-glucose assay kit) on dsr3510ΔC-term

Substrate in series [1]: OC[C@H]1O[C@@](CO)(O[C@H]2O[C@H](CO)[C@@H](O)[C@H](O)[C@H]2O)[C@@H](O)[C@@H]1O
The series is described as above. The note with it: pH 5.0, 30 °C, 0.05 M sodium acetate, 1 mM CaCl2, crude enzyme extract, 500 µg/mL protein. Format: biochemical, Liquorilactobacillus nagelii. The source says: Michaelis-Menten fit, released fructose (D-fructose/D-glucose assay kit) on dsr3510 (full-length L. nagelii TMW 1.1827 dextransucrase)

A word on the Km: it is the concentration of substrate that gives half-maximal velocity. One may read the Vmax as the rate approached at saturating substrate.

On to `OC[C@H]1O[C@@](CO)(O[C@H]2O[C@H](CO)[C@@H](O)[C@H](O)[C@H]2O)[C@@H](O)[C@@H]1O` [sucrose], for which the Km at dsr3510ΔC-term turned out to be 12.6 ± 0.73 mM.

B1: dsr3510 (full-length L. nagelii TMW 1.1827 dextransucrase) (Liquorilactobacillus nagelii) (protein)
chain: NVKISADSTPQNVVEQSSSSNDSSSNSSSSSKTSSSSKVNTDQVNEDTSSSITKENNISAMPKKQTQLTTATTAADKVTQTTDTSATTTAATNQQKNNQVESSSQSSSEQASSTISNNTTVSNTDSQQSSSQVANVTGGKYVDSNETWSYVDSQGNKIKGLNKVDGNLQYFDETSGAQIKGEYEKVGETTYYFDKNSGNAIPYTLTSDGKTTAYQADGQPAGAGFFTNQDGEIYYFDADGSYKTGLQTLNGTTYYFDSNGYLSKDTVENVDGKTYYSQADTGKTIQLTSQNLPTQTSTAKEVASFAAHNVAYSYDTKSFENINGYLTADSWYRPTYILNDGQLWIKSTSTDFRPLLMAWWPSKSIEADYLNYMIEQGIISSTRNFSANDDSLVLNSAAQNVQIALEKNLTMTGSVNWLRQIMQSFVKKEAIWNKTSEDPSSDGLSSLQGGFLTYQNSKLTPNANSDYRILGYVPSYIKNSNDKGSEFLLANDIDNSNPVVQAEELNWLYYLMNFGSITADDSSANFDGIRVDAVDNVDADLLKIAADYFKDAYQVNQNDQNADSHLSILEDWSNNDPQYVYDQGANQLTMDDYFVGQMNYSLENAPGSNSKMERFVQWYLINRANDSTEDTAIPNYTFVRAHDSNSQDQIQKAIQAATGGEYGVFTWEQLQQGLTLYYADQASTEKKYNRYNIPSAYAMLLTNKDTVPRVYYGDLYLEGGQYMANKTIYYDTITNLLASRVKYVAGGQTMSVDGNDVLTSVRFGKGAMTASDQGTSETRTEGVGVIVSNNTSLKLKDGDQVVLHMGVAHRNQAYRAAVLTTKDGIINYTSDDNAPIAYTDNNGDLVFTNQNLLINGVEEANTSIQGYANPDVTGYLAVWVPVGAATTQDARTAATTDSSTDGKTLHSNAALDSNVIYEGFSNFISYPDSHDDNTNVVIAKNTDLFKALGITSFELAPQYRTSGDKTFLDSTIDNGYAFTDRYDLGYGTPTKYGTVDDLRNVIKALHAAGIQAIADWVPDQIYNLPTEELVTVNRTDERGNQVASSKIHDLLYVANTIGGGDYQKKYGGAFLEVLETEYPDLFKEIQASTGKTIDPSQKITSWSAEYFNGTNILGRGSDYVLRSDDNQQYFYVGDDSSEVQKFLPASLVAENDRQKYSLGDQSANNYFVQENLNGKWYLIDPLNNQKQTGFQYIPDQIKTVYYNAQGEMQYGQQFLGGHWYLFDSRTGAMETGLQYIGNQHKTVYYNVQGQMQYGQQNVNGHWYLFDSKTGAMKTGWQYISNQHKTVYYNTQGQMQYGQQNVNGHWYLFDSKTGAMKTGWQYISDQHKTVYYNGQGQMQYGQQNVNGHWYLFDSKTGAMKTGWQYISNQHKTVYYNSQGQMVYGKQVIAGKTYYFDTKTGRKL
For B1, in series [1], the Km amounted to 10.97 ± 1.56 mM and the Vmax is 200 µM/min.

The record behind these values is article PMC8954249, “The C-Terminal Domain of Liquorilactobacillus nagelii Dextransucrase Mediates the Production of Larger Dextrans Compared to Liquorilactobacillus hordei” (Gels, 2022).
